In paper PMC4753445:

Biological target: AKT1 substrate 1 (AKT1S1), Flag-tagged (UniProt Q96B36)
Assay: co-IP; 14-3-3 co-expressed with AKT1S1 (or 2SE) in HEK293T cells, with or without overexpressed PKM2 or PKM2 K270M; 14-3-3 co-immunoprecipitated with AKT1S1 detected by blot

14-3-3, sequence (P63104 whole entry): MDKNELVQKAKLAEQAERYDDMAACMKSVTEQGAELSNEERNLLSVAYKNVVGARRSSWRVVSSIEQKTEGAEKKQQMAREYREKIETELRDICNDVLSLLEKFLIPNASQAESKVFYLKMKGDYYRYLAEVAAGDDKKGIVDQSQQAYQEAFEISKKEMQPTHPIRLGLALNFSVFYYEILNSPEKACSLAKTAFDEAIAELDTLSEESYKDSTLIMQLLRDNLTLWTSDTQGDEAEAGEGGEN

## 14-3-3 (from UniProt P63104 1-245) (natural protein)
  fold increase of the co-precipitate with PKM2 overexpressed against without PKM2: > 3 fold
